The values below come from patent publication US10442866 (BEIJING MABWORKS BIOTECH, dated 2019).

One may read the Kd as the constant that tells how readily two partners part at equilibrium. One may read the koff as the rate constant with which the complex falls apart. One may read the kon as the second-order rate constant of association. What is called EC50 (read off the curve) is the concentration at which the effect is half-maximal. In general, EC50 refers to the concentration at which the effect is half-maximal.

Assay [1] deals with T1, murine OX40-His (Crown, Cat#: E3350-B1707) (mouse, UniProt P47741 20-211).
T1 construct: bought protein; also called mouse OX40-his; muOX40-his; not shown: His tag
T1 sequence: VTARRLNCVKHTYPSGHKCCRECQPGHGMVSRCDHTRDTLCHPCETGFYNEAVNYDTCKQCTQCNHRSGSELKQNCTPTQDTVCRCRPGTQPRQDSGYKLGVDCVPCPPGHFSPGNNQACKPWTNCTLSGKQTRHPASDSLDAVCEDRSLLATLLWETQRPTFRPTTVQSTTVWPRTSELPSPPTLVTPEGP
Nature of the assay: ELISA on coated mouse OX40-His, OD450. On the technique in general: ELISA stands for enzyme-linked immunosorbent assay.

Assay [2] deals with T2, recombinant human OX40-his (Sino Biological, Cat#:10481-H03H) (human, UniProt P43489 29-214).
T2 construct: bought protein; also called hOX40-his; not shown: His tag
T2 sequence: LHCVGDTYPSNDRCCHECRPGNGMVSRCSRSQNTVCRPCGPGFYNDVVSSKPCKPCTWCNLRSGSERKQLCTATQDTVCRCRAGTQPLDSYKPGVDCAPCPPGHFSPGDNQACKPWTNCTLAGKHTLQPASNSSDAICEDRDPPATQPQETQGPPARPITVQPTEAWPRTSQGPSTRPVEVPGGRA
As to the kind of experiment: SPR Biacore 8K, OX40-His on chip, antibody injected. The protocol:
SPR assays were used to determine the binding affinity of the chimetic or humanized anti-OX40 antibodies to human OX40 with the BIAcore™ 8K instrument (GE Life Sciences). Briefly, 100-200 response units (RU) of human OX40-His protein (Sino Biological, CN, Cat#:10481-H03H, Lot no.: MA08MA3003) were coupled to CM5 biosensor chips (Cat#: BR-1005-30, GE Life Sciences), followed by blocking of un-reacted groups with 1M ethanolamine. Serially diluted antibodies at concentrations ranging from 0.3 µM to 10 µM were injected into the SPR running buffer (HBS-EP buffer, pH7.4, GE Life Sciences; US; Cat#:BR-1006-69) at 30 µL/minute. The binding capacitity was calculated with the RUs of blank controls subtracted. The association rate (k_a) and dissociation rate (k_d) were calculated using the one-to-one Langmuir binding model (BIA Evaluation Software, GE Life Sciences). The equilibrium dissociation constant K_D was calculated as the k_d/k_a ratio.
(In SPR one partner is held on a chip, and binding of the other changes the refractive index at the surface.)

In assay [3] the target is T3, rhesus OX40 expressed on HEK293A cells (rhesus, UniProt P43489 29-277 (human entry)).
T3 construct: also called HEK293A/rhOX40; HEK293A/rhesusOX40 cells
T3 chain: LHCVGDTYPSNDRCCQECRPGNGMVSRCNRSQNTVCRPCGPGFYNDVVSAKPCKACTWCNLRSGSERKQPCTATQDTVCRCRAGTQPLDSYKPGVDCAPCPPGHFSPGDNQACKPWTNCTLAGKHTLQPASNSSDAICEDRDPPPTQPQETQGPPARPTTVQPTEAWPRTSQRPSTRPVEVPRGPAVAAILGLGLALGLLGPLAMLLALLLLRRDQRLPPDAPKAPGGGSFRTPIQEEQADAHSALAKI
As to the kind of experiment: FACS on HEK293A/rhesus OX40 cells, MFI (panel without title; monkey OX40 by the legend). The protocol:
Briefly, 10^5 HEK293A cells were seeded into each well of the 96-well plates and serially diluted anti-OX40 antibodies were added to the plates. After incubated at 4° C. for 1 hour, plates were washed 3 times with PBST. Then, an APC coupled Goat Anti-Mouse IgG (BioLegen, US, Cat#: 405308) diluted 500× was added to the plates. After incubation at 4° C. for 1 hour, the plates were washed with PBS for 3 times and then cell fluorescence was monitored using a FACS machine (BD).
Example 15 Humanized Anti-OX40 Antibodies Bound to Human or Rhesus OX40 Expressed on HEK293A Cells The humanized anti-OX40 antibodies were also tested for their ability of binding to HEK293A/huOX40 cells or HEK293A/rhOX40 cells, following the FACS analysis protocol as described in Example 5.

Assay [4] has as its target T4, recombinant rhesus OX40-his (Sino Biological, Cat#:90846-C08H) (rhesus monkey, UniProt P43489 29-214 (human entry)).
T4 construct: bought protein; also called monkey OX40-his; rhOX40-his; not shown: His tag
T4 chain: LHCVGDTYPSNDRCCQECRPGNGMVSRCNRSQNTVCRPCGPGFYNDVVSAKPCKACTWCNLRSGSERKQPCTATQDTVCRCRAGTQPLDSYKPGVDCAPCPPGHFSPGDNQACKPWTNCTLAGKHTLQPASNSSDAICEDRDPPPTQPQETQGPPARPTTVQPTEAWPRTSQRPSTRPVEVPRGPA
Nature of the assay: ELISA on coated rhesus OX40-His, OD450.

Assay [5] concerns the target T2, recombinant human OX40-his (Sino …). As to the kind of experiment: ELISA on coated human OX40-His, OD450.
Assay [6] addresses T1, murine OX40-His (Crown, Cat#: …). Nature of the assay: ELISA on coated mouse OX40-His, OD450. The source holds these as a separate data set.
Assay [7] has as its target T4, recombinant rhesus OX40-his (Sino …). Nature of the assay: ELISA on coated rhesus OX40-His, OD450.
Assay [8] deals with T5, human OX40 expressed on HEK293A cells (human, UniProt P43489 29-277).
T5 construct: also called HEK293A/huOX40; HEK293A/human OX40 cells
T5 sequence: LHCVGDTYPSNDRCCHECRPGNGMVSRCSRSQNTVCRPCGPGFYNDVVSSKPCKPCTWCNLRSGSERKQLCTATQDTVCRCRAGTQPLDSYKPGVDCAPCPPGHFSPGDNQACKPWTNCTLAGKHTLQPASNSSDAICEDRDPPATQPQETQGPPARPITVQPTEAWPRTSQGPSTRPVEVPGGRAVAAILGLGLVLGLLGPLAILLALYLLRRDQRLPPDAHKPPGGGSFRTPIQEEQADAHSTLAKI
As to the kind of experiment: FACS on HEK293A/huOX40 cells.

Assay [9] deals with T3, rhesus OX40 expressed on HEK293A cells. As to the kind of experiment: FACS on HEK293A/rhOX40 cells.

Where two headings read alike, the source gives them in different places.

B1: 68C8-VH2VL2 (antibody, human IgG1, kappa, V domains shown)
VH: QVQLVQSGAEVKKPGASVKVSCKVSGDTFTSYWITWVRQRPGKGLEWMGDIHPGSGSTNNNEKFKNRVTMTVDTSTDTAYMELSSLRSEDTAVYYCATLRPYYFVYWGQGTLVTVSS
VL: DIQMTQSPSSLSASVGDRVTITCRASQDISNYLNWYQQKPGKTPKLLIYYTSRLLSGVPSRFSGSGSGTDYTLTISSLQPEDFATYYCQQGNTLPLTFGQGTRLEIKR
notes: humanized; also called 68C8-H2L2
As for B1, the binding result in [1] is listed as “no binding (tested: 10000 ng/ml (log 4))”; in [3] it was “binds”; in assay [4], “binds”. In assay [2], the Kd worked out at 5.07 nM. Moreover, the koff in assay [2] came out at 0.00105 s⁻¹. Also, in assay [2], the kon was found to be 207000 M⁻¹ s⁻¹.

B2: 71H8-VH3VL3 (antibody, human IgG1, kappa, V domains shown)
VH: QVQLVQSGAEVKKPGASVKVSCKVSGYTFTSYWITWVRQRPGQGLEWIGDIYPGSGSTNQNEKFKSRVTLTVDTSTDTAYMELSSLRSEDTAVYYCATLRPYYFVYWGQGTLVTVSS
VL: DIQMTQSPSSLSASVGDRVTITCRASQDISNYLNWYQQKPGKTVKLLIYYTSRLLSGVPSRFSGSGSGTDYTLTISSLQPEDFATYFCQQGNTLPLTFGQGTRLEIKR
notes: humanized; also called 71H8-H3L3
For the molecule B2, the “EC50 (read off the curve)” value in assay [5] is roughly 3 ng/mL. In [6], the binding result is “no binding (tested: 10000 ng/ml (log 4))”. Also, in assay [2], the Kd was 6.36 nM, the dissociation rate constant (koff) was 0.00207 s⁻¹ and the on-rate constant (kon) was determined as 325000 M⁻¹ s⁻¹. Besides, in assay [3], the binding result is listed as “binds”. Also, in [7], the “EC50 (read off the curve)” value is roughly 3 ng/mL.

B3: 68C8-VH3VL2 (antibody, human IgG1, kappa, V domains shown)
VH: QVQLVQSGAEVKKPGASVKVSCKVSGDTFTSYWITWVRQRPGQGLEWIGDIHPGSGSTNNNEKFKNRVTLTVDTSTDTAYMELSSLRSEDTAVYYCATLRPYYFVYWGQGTLVTVSS
VL: DIQMTQSPSSLSASVGDRVTITCRASQDISNYLNWYQQKPGKTPKLLIYYTSRLLSGVPSRFSGSGSGTDYTLTISSLQPEDFATYYCQQGNTLPLTFGQGTRLEIKR
notes: humanized; also called 68C8-H3L2
With B3, the binding result in [1] is listed as “no binding (tested: 10000 ng/ml (log 4))”; in assay [3], “binds”; in assay [4], “binds”. In addition, in assay [2], the dissociation constant Kd came out at 9.55 nM. The off-rate (koff) in assay [2] is 0.00157 s⁻¹. Moreover, the kon in assay [2] turned out to be 165000 M⁻¹ s⁻¹.

B4: 71H8-VH2VL2 (antibody, human IgG1, kappa, V domains shown)
VH: QVQLVQSGAEVKKPGASVKVSCKVSGYTFTSYWITWVRQRPGKGLEWMGDIYPGSGSTNQNEKFKSRVTMTVDTSTDTAYMELSSLRSEDTAVYYCATLRPYYFVYWGQGTLVTVSS
VL: DIQMTQSPSSLSASVGDRVTITCRASQDISNYLNWYQQKPGKTPKLLIYYTSRLLSGVPSRFSGSGSGTDYTLTISSLQPEDFATYYCQQGNTLPLTFGQGTRLEIKR
notes: humanized; also called 71H8-H2L2
Regarding B4, in assay [5], the “EC50 (read off the curve)” value was roughly 3 ng/mL. Further, the binding result in [6] was “no binding (tested: 10000 ng/ml (log 4))”. Moreover, in assay [2], the Kd turned out to be 4.81 nM, the dissociation rate constant (koff) was determined as 0.00172 s⁻¹ and the kon worked out at 358000 M⁻¹ s⁻¹. Also, the binding result in assay [3] is “binds”. For the same molecule, in [7], the “EC50 (read off the curve)” value was roughly 3 ng/mL.

B5: 71H8-VH0VL0 (antibody, human IgG1, kappa, V domains shown)
VH: QVQLVQSGAEVKKPGASVKVSCKVSGDTFTSYWITWVRQAPGKGLEWMGDIYPGSGSTNQNEKFKSRVTMTEDTSTDTAYMELSSLRSEDTAVYYCATLRPYYFVYWGQGTLVTVSS
VL: DIQMTQSPSSLSASVGDRVTITCRASQDISNYLNWYQQKPGKAPKLLIYYTSRLLSGVPSRFSGSGSGTDFTLTISSLQPEDFATYYCQQGNTLPLTFGQGTRLEIKR
notes: humanized; also called 71H8-H0L0
Regarding B5, the “EC50 (read off the curve)” value in assay [5] is roughly 3 ng/mL. The binding result in [6] is on record as “no binding (tested: 10000 ng/ml (log 4))”. For the same molecule, in assay [2], the Kd stood at 9.21 nM, the koff turned out to be 0.00274 s⁻¹ and the kon came out at 297000 M⁻¹ s⁻¹. In addition, the binding result in assay [3] is “binds”. Moreover, the half-maximal effective concentration (EC50 (read off the curve)) in assay [7] is roughly 3 ng/mL.

B6: 68C8-VH0VL0 (antibody, human IgG1, kappa, V domains shown)
VH: QVQLVQSGAEVKKPGASVKVSCKVSGDTFTSYWITWVRQAPGKGLEWMGDIHPGSGSTNNNEKFKNRVTMTEDTSTDTAYMELSSLRSEDTAVYYCATLRPYYFVYWGQGTLVTVSS
VL: DIQMTQSPSSLSASVGDRVTITCRASQDISNYLNWYQQKPGKAPKLLIYYTSRLLSGVPSRFSGSGSGTDFTLTISSLQPEDFATYYCQQGNTLPLTFGQGTRLEIKR
notes: humanized; also called 68C8-H0L0
With B6, the binding result is recorded as “no binding (tested: 10000 ng/ml (log 4))” in assay [1], “binds” in assay [3] and “binds” in assay [4]. Moreover, the equilibrium dissociation constant (Kd) in assay [2] was 4.49 nM. Also, the off-rate (koff) in assay [2] worked out at 0.00184 s⁻¹. For the same molecule, the kon in assay [2] was 410000 M⁻¹ s⁻¹.

B7: 68C8-VH3VL3 (antibody, human IgG1, kappa, V domains shown)
VH: QVQLVQSGAEVKKPGASVKVSCKVSGDTFTSYWITWVRQRPGQGLEWIGDIHPGSGSTNNNEKFKNRVTLTVDTSTDTAYMELSSLRSEDTAVYYCATLRPYYFVYWGQGTLVTVSS
VL: DIQMTQSPSSLSASVGDRVTITCRASQDISNYLNWYQQKPGKTVKLLIYYTSRLLSGVPSRFSGSGSGTDYTLTISSLQPEDFATYFCQQGNTLPLTFGQGTRLEIKR
notes: humanized; also called 68C8-H3L3
As for B7, the binding result in assay [1] is recorded as “no binding (tested: 10000 ng/ml (log 4))”. Besides, in assay [2], the Kd is 4.04 nM, the koff amounted to 0.000821 s⁻¹ and the kon was found to be 203000 M⁻¹ s⁻¹. Besides, in [3], the binding result is “binds”. Moreover, in [4], the binding result is “binds”.

B8: chimeric antibody 6A12 (antibody, human IgG1, kappa, V domains shown)
VH: QVQLQQSGPELVKPGASVKISCKASGYAFSSSWMNWVKQRPGKGLEWIGRIYPGDGITNYNGNFKGKATLTADKSSSTAYMQLSGLTSADSAVYFCAREFIPLGWGTGTTVTVSS
VL: DIVMTQTPFSNPVTLGTSASISCRSSKSLLHSNGITYLYWYLQKPGQSPQLLIYQMSNLASGVPDRFSSSGSGTDFTLRISRVEAEDVGVYYCAQNLELPWTFGGGTKLEIKR
notes: mouse variable regions with human IgG1/kappa constant regions
B8: the concentration giving a half-maximal response (EC50) was 177 ng/mL in assay [8] and 883 ng/mL in assay [9].
